The series relates to Escherichia coli TOP10. Kind of series: shrunken log2 fold change of peptide-encoding DNA abundance (4.5 h post-induction vs induction); higher = less antimicrobial activity (less host growth inhibition). The settings on record: time post-induction: 4.5 h; library: site-saturation at positions 5, 18, 19, 20.
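Also: peptides expressed intracellularly from a pBAD plasmid library in pooled LB shake-flask culture, induced with 0.3% L-arabinose, DNA abundance read by NGS, three biological replicates, DESeq2 with apeglm shrinkage.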

Take RRIRCRPPRLPRPRPRPVPSPRP: the “shrunken log2 fold change” value was -0.119.
In the case of RRIRYRPPRLPRPRPRPGDHPRP it was 0.0294; in that of RRIRPRPPRLPRPRPRPKCNPRP, -0.125; in that of RRIRARPPRLPRPRPRPKGMPRP, 0.4.
In the case of RRIRHRPPRLPRPRPRPDFNPRP it was -0.607.
In the case of RRIRIRPPRLPRPRPRPYHIPRP it was -0.0511.
Consider RRIRIRPPRLPRPRPRPPSHPRP, for which the “shrunken log2 fold change” value is -0.0543.
In the case of RRIRWRPPRLPRPRPRPKTWPRP it was 0.325; in that of RRIRIRPPRLPRPRPRPKRTPRP, -0.198.
Regarding RRIRHRPPRLPRPRPRPMIIPRP, the “shrunken log2 fold change” value was -0.205.
Consider RRIRVRPPRLPRPRPRPLLGPRP, for which the “shrunken log2 fold change” value is -0.131.
Turning to RRIRDRPPRLPRPRPRPRTWPRP, the “shrunken log2 fold change” value was found to be 0.0224.
In the case of RRIRWRPPRLPRPRPRPLTKPRP, the “shrunken log2 fold change” value worked out at 0.23.
As to RRIRTRPPRLPRPRPRPWCIPRP, the “shrunken log2 fold change” value was -0.19.
In the case of RRIRPRPPRLPRPRPRPYSHPRP it was -1.42; in that of RRIRKRPPRLPRPRPRPQFAPRP, -0.0223; in that of RRIRPRPPRLPRPRPRPPHFPRP, 0.646.
In the case of RRIRMRPPRLPRPRPRPPCHPRP it was 0.186; in that of RRIRERPPRLPRPRPRPYTCPRP, -0.398; in that of RRIRRRPPRLPRPRPRPFQWPRP, 0.194.
In the case of RRIRGRPPRLPRPRPRPEMAPRP it was 2.8.
Consider RRIRWRPPRLPRPRPRPPPWPRP, for which the “shrunken log2 fold change” value turned out to be 0.616.
For the sequence RRIRDRPPRLPRPRPRPHMWPRP, the “shrunken log2 fold change” value worked out at 0.0299.
In the case of RRIRRRPPRLPRPRPRPWFRPRP it was 0.0331; in that of RRIRIRPPRLPRPRPRPGFEPRP, 3.71; in that of RRIRTRPPRLPRPRPRPERMPRP, 0.275.
In the case of RRIRNRPPRLPRPRPRPAKRPRP it was 0.27.
Take RRIRQRPPRLPRPRPRPVQAPRP: the “shrunken log2 fold change” value is -0.0131.
In the case of RRIRKRPPRLPRPRPRPPYMPRP it was -0.209; in that of RRIRFRPPRLPRPRPRPHQQPRP, 0.0921.
In the case of RRIRPRPPRLPRPRPRPCLVPRP it was -0.179.
In the case of RRIRIRPPRLPRPRPRPWGRPRP it was -0.239; in that of RRIRVRPPRLPRPRPRPSHNPRP, -0.692.
In the case of RRIRTRPPRLPRPRPRPYTKPRP, the “shrunken log2 fold change” value is -0.248.
Regarding RRIRGRPPRLPRPRPRPYTNPRP, the “shrunken log2 fold change” value is -0.313.
In the case of RRIRGRPPRLPRPRPRPDFTPRP it was 0.22; in that of RRIRERPPRLPRPRPRPVTKPRP, 0.365; in that of RRIRSRPPRLPRPRPRPGYPPRP, -0.209.
For RRIRFRPPRLPRPRPRPKMGPRP, the “shrunken log2 fold change” value is -0.122.
In the case of RRIRVRPPRLPRPRPRPDIKPRP it was -0.912.
In the case of RRIRARPPRLPRPRPRPSSNPRP it was 1.2; in that of RRIRERPPRLPRPRPRPVCQPRP, 0.121; in that of RRIRLRPPRLPRPRPRPAHAPRP, 0.195.
For the sequence RRIRGRPPRLPRPRPRPEWEPRP, the “shrunken log2 fold change” value is 0.00476.
In the case of RRIRNRPPRLPRPRPRPGWSPRP it was 0.2; in that of RRIRTRPPRLPRPRPRPGQQPRP, -0.0603; in that of RRIRGRPPRLPRPRPRPLSRPRP, 1.17.
In the case of RRIRQRPPRLPRPRPRPDWDPRP it was -0.00122.
In the case of RRIRGRPPRLPRPRPRPVSLPRP it was 0.321; in that of RRIRIRPPRLPRPRPRPWIGPRP, -0.0616.
For the sequence RRIRCRPPRLPRPRPRPHHKPRP, the “shrunken log2 fold change” value is -0.857.
In the case of RRIRMRPPRLPRPRPRPQLMPRP it was 0.0471; in that of RRIRLRPPRLPRPRPRPNFEPRP, 0.0189.
In the case of RRIRMRPPRLPRPRPRPRPSPRP it was 1.12.
In the case of RRIRKRPPRLPRPRPRPHYHPRP it was -0.145.
RRIRERPPRLPRPRPRPNYAPRP: the “shrunken log2 fold change” value was -0.0181.
In the case of RRIRTRPPRLPRPRPRPFMEPRP it was -0.228; in that of RRIRQRPPRLPRPRPRPGFYPRP, 0.116.
Turning to RRIRARPPRLPRPRPRPAQHPRP, the “shrunken log2 fold change” value was 0.326.
In the case of RRIRKRPPRLPRPRPRPLHFPRP it was -0.258; in that of RRIRNRPPRLPRPRPRPRSMPRP, -0.365; in that of RRIRNRPPRLPRPRPRPCVFPRP, -0.162.
In the case of RRIRYRPPRLPRPRPRPHTFPRP it was -0.14; in that of RRIRWRPPRLPRPRPRPDLKPRP, 0.12; in that of RRIRHRPPRLPRPRPRPMMLPRP, -0.286.
RRIRWRPPRLPRPRPRPAWCPRP: the “shrunken log2 fold change” value turned out to be 0.469.
For the sequence RRIRGRPPRLPRPRPRPKMVPRP, the “shrunken log2 fold change” value amounted to 0.79.
In the case of RRIRSRPPRLPRPRPRPIDCPRP, the “shrunken log2 fold change” value was -1.27.
For the sequence RRIRKRPPRLPRPRPRPCQDPRP, the “shrunken log2 fold change” value amounted to 0.0115.
For RRIRWRPPRLPRPRPRPIFDPRP, the “shrunken log2 fold change” value came out at 0.273.
Consider RRIRGRPPRLPRPRPRPFLLPRP, for which the “shrunken log2 fold change” value turned out to be 0.206.
Regarding RRIRGRPPRLPRPRPRPQNKPRP, the “shrunken log2 fold change” value is 0.0435.
For the sequence RRIRLRPPRLPRPRPRPDNLPRP, the “shrunken log2 fold change” value was -0.186.
In the case of RRIRFRPPRLPRPRPRPETLPRP it was 0.0591; in that of RRIRYRPPRLPRPRPRPNAVPRP, -0.00911; in that of RRIRGRPPRLPRPRPRPCMMPRP, 0.145.
On to RRIRFRPPRLPRPRPRPAEMPRP, for which the “shrunken log2 fold change” value stood at 0.00299.
In the case of RRIRKRPPRLPRPRPRPCIMPRP it was 1.3; in that of RRIRERPPRLPRPRPRPDCTPRP, 0.104.
On to RRIRARPPRLPRPRPRPIVHPRP, for which the “shrunken log2 fold change” value was -0.311.
In the case of RRIRYRPPRLPRPRPRPRMAPRP it was 0.0395.
In the case of RRIRKRPPRLPRPRPRPYMIPRP it was -0.415.
In the case of RRIRVRPPRLPRPRPRPDKHPRP it was -0.108; in that of RRIRTRPPRLPRPRPRPILDPRP, 0.0371; in that of RRIRPRPPRLPRPRPRPAEIPRP, 0.0712.
Consider RRIRDRPPRLPRPRPRPMHSPRP, for which the “shrunken log2 fold change” value came to 0.117.
In the case of RRIRPRPPRLPRPRPRPSGAPRP it was 0.345.
On to RRIRSRPPRLPRPRPRPIQGPRP, for which the “shrunken log2 fold change” value is -0.127.
As for RRIRMRPPRLPRPRPRPQEYPRP, the “shrunken log2 fold change” value is -0.0485.
In the case of RRIRARPPRLPRPRPRPDQMPRP it was 0.386.
Turning to RRIRSRPPRLPRPRPRPNFVPRP, the “shrunken log2 fold change” value was -0.0465.
Consider RRIRARPPRLPRPRPRPWVTPRP, for which the “shrunken log2 fold change” value is -0.127.
In the case of RRIRMRPPRLPRPRPRPRTGPRP it was 0.561; in that of RRIRLRPPRLPRPRPRPTPLPRP, 0.296; in that of RRIRDRPPRLPRPRPRPQGPPRP, 0.0365.
In the case of RRIRHRPPRLPRPRPRPSKTPRP, the “shrunken log2 fold change” value was -0.24.
In the case of RRIRWRPPRLPRPRPRPAPQPRP it was 0.743; in that of RRIRNRPPRLPRPRPRPVGTPRP, -0.073.
As for RRIRLRPPRLPRPRPRPWTVPRP, the “shrunken log2 fold change” value is -0.176.
In the case of RRIRYRPPRLPRPRPRPVYLPRP it was 0.00668; in that of RRIRHRPPRLPRPRPRPIENPRP, -0.143.
In the case of RRIRWRPPRLPRPRPRPRVPPRP it was 0.444; in that of RRIRGRPPRLPRPRPRPPMHPRP, 0.95; in that of RRIRCRPPRLPRPRPRPYNAPRP, -1.23.
For RRIRRRPPRLPRPRPRPVAMPRP, the “shrunken log2 fold change” value worked out at 0.342.
In the case of RRIRERPPRLPRPRPRPDKYPRP it was -0.449.
With RRIRIRPPRLPRPRPRPNMEPRP, the “shrunken log2 fold change” value was -0.509.
Consider RRIRRRPPRLPRPRPRPYKQPRP, for which the “shrunken log2 fold change” value is -0.286.
On to RRIRQRPPRLPRPRPRPLVQPRP, for which the “shrunken log2 fold change” value is -0.361.
In the case of RRIRVRPPRLPRPRPRPFRRPRP it was -0.101.
On to RRIRSRPPRLPRPRPRPGYSPRP, for which the “shrunken log2 fold change” value is -0.407.
In the case of RRIRKRPPRLPRPRPRPYVVPRP it was -0.226; in that of RRIRVRPPRLPRPRPRPYVVPRP, -0.0262.
In the case of RRIRCRPPRLPRPRPRPTWIPRP it was 0.24; in that of RRIRLRPPRLPRPRPRPVKAPRP, -0.0553.
For the sequence RRIRIRPPRLPRPRPRPQFKPRP, the “shrunken log2 fold change” value is -0.609.
In the case of RRIRRRPPRLPRPRPRPNYRPRP it was 0.0832; in that of RRIRNRPPRLPRPRPRPMWSPRP, -0.095.
For the sequence RRIRVRPPRLPRPRPRPLIKPRP, the “shrunken log2 fold change” value was -0.206.
For RRIRKRPPRLPRPRPRPGRRPRP, the “shrunken log2 fold change” value came to 0.438.
As for RRIRWRPPRLPRPRPRPSKPPRP, the “shrunken log2 fold change” value is -0.0185.
In the case of RRIRQRPPRLPRPRPRPIYRPRP it was -0.0223.
Take RRIRDRPPRLPRPRPRPPIQPRP: the “shrunken log2 fold change” value stood at 0.242.
As for RRIRIRPPRLPRPRPRPLCVPRP, the “shrunken log2 fold change” value is -0.551.
In the case of RRIRARPPRLPRPRPRPHGLPRP, the “shrunken log2 fold change” value turned out to be 0.268.
